Data reported in publication PMC5228624.

Molecular target: T1, arginine vasopressin (AVP) (UniProt P01185 20-28)
T1 chain: CYFQNCPRG
Assay: bead capture, thermal elution, MALDI-TOF MS

ACCTGGGGGAGTATTGCGGAGGAAGGTAAAAAAA (ssDNA) [ATP-specific aptamer (control)]
binding result: no binding
